# Measured values reported in patent US20240002844.
# Target: T1, recombinant SHN3 (rSHN3, 50-930 aa) (UniProt A2A884)
# T1 sequence: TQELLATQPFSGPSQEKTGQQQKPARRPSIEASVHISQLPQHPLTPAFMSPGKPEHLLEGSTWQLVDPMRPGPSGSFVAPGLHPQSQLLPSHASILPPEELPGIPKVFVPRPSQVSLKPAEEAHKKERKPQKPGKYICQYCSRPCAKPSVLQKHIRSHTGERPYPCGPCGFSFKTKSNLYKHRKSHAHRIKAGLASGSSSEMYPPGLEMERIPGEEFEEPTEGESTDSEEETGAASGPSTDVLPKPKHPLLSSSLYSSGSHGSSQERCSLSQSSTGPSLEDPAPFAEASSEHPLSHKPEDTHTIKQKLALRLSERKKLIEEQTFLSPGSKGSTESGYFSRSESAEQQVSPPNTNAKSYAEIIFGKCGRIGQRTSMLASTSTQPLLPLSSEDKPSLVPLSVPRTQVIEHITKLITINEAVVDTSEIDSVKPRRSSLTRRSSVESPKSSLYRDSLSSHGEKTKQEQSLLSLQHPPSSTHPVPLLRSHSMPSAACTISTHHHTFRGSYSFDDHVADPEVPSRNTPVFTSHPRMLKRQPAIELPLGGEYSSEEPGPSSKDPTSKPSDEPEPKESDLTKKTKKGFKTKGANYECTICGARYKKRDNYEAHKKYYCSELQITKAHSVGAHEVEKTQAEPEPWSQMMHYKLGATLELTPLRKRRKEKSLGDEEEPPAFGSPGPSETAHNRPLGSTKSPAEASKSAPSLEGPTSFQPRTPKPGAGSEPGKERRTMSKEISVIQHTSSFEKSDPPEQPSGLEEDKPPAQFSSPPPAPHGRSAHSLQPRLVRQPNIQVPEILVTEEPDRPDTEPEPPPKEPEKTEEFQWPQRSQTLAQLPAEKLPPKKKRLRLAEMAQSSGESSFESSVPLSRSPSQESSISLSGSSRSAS
# Chain of recombinant ERK2 (rERK2) (P28482 2-360): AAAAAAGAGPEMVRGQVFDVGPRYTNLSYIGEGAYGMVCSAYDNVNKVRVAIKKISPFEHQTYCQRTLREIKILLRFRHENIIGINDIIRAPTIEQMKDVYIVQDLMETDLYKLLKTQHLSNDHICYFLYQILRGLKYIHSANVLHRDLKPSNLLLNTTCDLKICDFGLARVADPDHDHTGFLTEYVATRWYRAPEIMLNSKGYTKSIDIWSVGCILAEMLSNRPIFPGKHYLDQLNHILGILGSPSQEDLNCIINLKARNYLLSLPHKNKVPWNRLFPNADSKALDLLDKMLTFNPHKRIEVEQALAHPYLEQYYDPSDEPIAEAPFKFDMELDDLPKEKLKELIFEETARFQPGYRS
substance,measurement,value
recombinant ERK2 (rERK2),in vitro kinase assay: rERK2-induced phosphorylation of rSHN3 (FIG. 9C),recombinant SHN3 (rSHN3) was phosphorylated by recombinant ERK2 (rERK2)
same,in vitro kinase assay: rERK2-induced phosphorylation of the ERK substrate ELK1 (FIG. 9C),rSHN3 inhibited rERK2-induced phosphorylation of the ERK substrate ELK1
same,phospho-spectrometry analysis of rERK and rSHN3 (FIG. 9D),"rERK phosphorylates rSHN3 at two serines (810 and 811 aa), one threonine (851 aa), and two serines (911 and 913 aa)"
